Target: the molecule itself
Assay: Western blot, homodimer formation

B1: K3 NGAL mutant protein (ligand)
chain: QDSTSDLIPAPPLSSVPLQQNFQDNQFQGKWYVVGLAGNAILREDEDPQKMYATIYELKEDKSYNVTSVLFRDDGCDYWIRTFVPGCQPGEFTLGNIQSYPGLTSYLVRVVSTNYNQFAMVFFKKVSQNQEYFKITLYGRTKELTSELQENFIRFSKSLGLPENNIVFPVPIDQCIDG
notes: Mutant of human NGAL; Expressed in bacteria like the wild type and labelled with Alexa 568 in the uptake assays; also called K3 Scn-Ngal; Mut1
- binding result: binds

— US12173037 (TRUSTEES OF COLUMBIA UNIVERSITY IN THE CITY OF NEW YORK, dated 2024)
